Each block holds one molecule with its values, some of them ahead of it.
Columns and labels:
HCT116 cells [1] = test: Cell endocytosis (uptake) detection by Ce6 fluorescence; format: cell-based, human; details: HCT116, 5 μM, 37 °C, 1 h
Procedure: (§1) For cell endocytosis detection, CT26 and HCT116 cells were treated with Ce6 molecules (5 μM) or Ce6-GFFY (5 μM) at 37 °C for 1 h. For ROS detection, cells were treated with Ce6 molecules (5 μM), GFFY peptide (5 μM), or Ce6-GFFY (5 μM) at 37 °C for 1 h and then treated with or without laser irradiation for 1 min (660 nm, 0.02 W/cm^2). Afterward, the cells were collected and stained with DCFH-DA (1:5000) at 37 °C for 20 min. For cell death analysis, cells were treated with Ce6 molecules, GFFY peptide, or Ce6-GFFY (CT26, 10 μM; HCT116, 5 μM) at 37 °C for 1 h and then treated with or without laser irradiation for 1 min (660 nm, 0.02 W/cm^2). After incubation at 37 °C for 24 h, the cells were collected and stained with propidium iodide (1:100) and annexin V-FITC (1:200). For examination of CRT expression, cells were treated with Ce6 molecules, GFFY peptide, or Ce6-GFFY (CT26, 10 μM; HCT116, 5 μM) at 37 °C for 1 h and then treated with or without laser irradiation for 1 min (660 nm, 0.02 W/cm^2). After incubation at 37 °C for 8 h, the cells were collected and blocked with 5% bull serum albumin for 10 min and then incubated with a primary anti-calreticulin antibody (#ab92516, Abcam), followed by the incubation of an Alexa Fluor 488-conjugated secondary antibody (#406416, BioLegend). […]

HCT116 cells [2] = test: CCK-8 assay; format: cell-based, human; details: drug 1 h, 660 nm laser 1 min at 0.02 W/cm^2, then 24 h at 37 °C, read-out: IC50 (proliferation)
Procedure: (§2) Cell viability was measured using a CCK-8 cell counting kit (Beyotime Biotechnology, Shanghai, China). 7000 cells were seeded in 96-well plates and treated with drugs at various concentrations for 1 h and then treated with or without laser irradiation for 1 min (660 nm, 0.02 W/cm^2), followed by incubation at 37 °C for 24 h. After the addition of the CCK-8 reagent, the cells were continually incubated at 37 °C for 3 h before being detected by a microplate reader (TECAN, Victoria, Austria).

CT26 cells [3] = test: CCK-8 assay; format: cell-based, mouse; details: drug 1 h, 660 nm laser 1 min at 0.02 W/cm^2, then 24 h at 37 °C, read-out: IC50 (proliferation)
Procedure: as §2

CT26 cells [4] = test: Cell endocytosis (uptake) detection by Ce6 fluorescence; format: cell-based, mouse; details: CT26, 5 μM, 37 °C, 1 h
Procedure: as §1

[5] = Toxicity evaluation in mice (blood routine, liver and kidney function, H&E pathology); format: in vivo, mouse; details: 5 mg/kg i.v. plus laser irradiation
Excerpt: Four-to-six-week-old BALB/c mice and BALB/c nude mice were purchased from Guangdong Medical Laboratory Animal Center (Guangzhou, China). All mice were maintained under standard conditions and treated according to institutional guidelines for animal care. For primary tumor therapy, 2 × 10^5 CT26 cells were suspended in a 1:1 mixture of PBS and matrigel and subcutaneously injected into the flanks of the mice. When the volume of tumors reached 70 mm^3, the mice were randomized into treatment and control groups. The treatment groups received tail intravenous injections of GFFY (2.5 mg/kg), Ce6 (2.5 mg/kg), or Ce6-GFFY (5 mg/kg), and the control group received PBS treatment, both groups were treated with once 660 nm laser irradiation for 8 min (1 min on, 1 min off; 4 cycles) on the tumor region at a power of 0.2 W/cm^2. Tumor volume and mouse body weight were recorded every three days, and tumor tissues were collected and weighed at the end of treatment. Main organs such as the heart, liver, spleen, lung, and kidney were collected for pathological analysis and the blood was collected for blood routine examination.

CT26-derived tumors = test: In vivo imaging, tumor targeting in mice bearing CT26-derived tumors; parameters: species or system mouse; details: tail vein, 5 mg/kg, n = 3
Procedure: (§3) For in vivo imaging, Ce6-GFFY (5 mg/kg) and Ce6 molecules (2.5 mg/kg) were injected into mice burdened with or without xenograft tumors through the tail vein (100 μL/mouse), and the fluorescence intensity of mice or main tissues such as brain, heart, liver, spleen, lung, kidney, intestine, and stomach was detected and analyzed with an IVIS spectrum imaging system (PerkinElmer, MA, USA). All animal experiments were approved by The Institutional Animal Care and Use Committee at Sun Yat-sen Cancer Center.

[6] = In vivo imaging, kinetics of Ce6 fluorescence in mice; parameters: species or system mouse
Procedure: as §3

CT26 cells [7] = test: ROS detection with DCFH-DA; format: cell-based, mouse; details: CT26, 5 μM, 1 h, 660 nm laser 1 min 0.02 W/cm^2, confocal laser scanning microscopy
Procedure: as §1

HCT116 cells [8] = test: ROS detection with DCFH-DA; format: cell-based, human; details: HCT116, 5 μM, 1 h, 660 nm laser 1 min 0.02 W/cm^2, confocal laser scanning microscopy
Procedure: as §1

[9] = confocal laser scanning microscopy, versus Ce6 molecules
[10] = flow cytometry, Ce6 fluorescence

SMILES: C=Cc1c(C)c2cc3nc(c(CC(=O)NCC(=O)N[C@@H](Cc4ccccc4)C(=O)N[C@@H](Cc4ccccc4)C(=O)N[C@@H](Cc4ccc(O)cc4)C(=O)O)c4[nH]c(cc5nc(cc1[nH]2)C(C)=C5CC)c(C)c4C(=O)O)[C@@H](CCC(=O)O)[C@@H]3C [Ce6-GFFY]
cellular Ce6 fluorescence (HCT116 cells [1]; [9]): noticeable aggregation of Ce6 fluorescence
cellular uptake (Ce6 positive cells) (HCT116 cells [1]; [10]): much higher than Ce6 molecules
IC50 (HCT116 cells [2]): 5.3 µM
IC50 (CT26 cells [3]): 6.27 µM
cellular Ce6 fluorescence (CT26 cells [4]; [9]): noticeable aggregation of Ce6 fluorescence
cellular uptake (Ce6 positive cells) (CT26 cells [4]; [10]): much higher than Ce6 molecules
hepatic and renal function (AST, ALT, BUN) ([5]; end of treatment, n = 5): did not exert an impact on the hepatic and renal function
murine blood routine analysis (inflammatory responses) ([5]; end of treatment, n = 5): did not elicit any significant inflammatory responses
histopathological analysis of heart, liver, spleen, lung, and kidney (H&E) ([5]; n = 4): no apparent toxicity
accumulation in tumor regions after injection (CT26-derived tumors; living imaging): accumulated rapidly in the tumor regions
distribution in tumor and normal tissues after 24 h (CT26-derived tumors; organs and tumors imaged at 24 h): stable aggregation in tumor tissues
retention time in the mice ([6]; mouse, in vivo, 5 mg/kg): over 48 h

time after injection by which almost cleared ([6]; mice, tail vein injection, 2.5 mg/kg, living imaging of Ce6 luminescence, n = 5): ≤ 12 h
half-life in mice ([6]; mice, tail vein injection, Ce6-GFFY 5 mg/kg, Ce6 2.5 mg/kg, from Ce6 luminescence changes, IVIS imaging, n = 5): 3 h
SMILES: C=Cc1c(C)c2cc3nc(c(CC(=O)O)c4[nH]c(cc5nc(cc1[nH]2)C(C)=C5CC)c(C)c4C(=O)O)[C@@H](CCC(=O)O)[C@@H]3C [Ce6, chlorin e6]
ROS production upon 660 nm laser irradiation (CT26 cells [7]): minimal
ROS production upon 660 nm laser irradiation (HCT116 cells [8]): minimal
